{
  "source": "paper PMC6430473",
  "target": "T1, Clp (Xanthomonas campestris pv. campestris 8004) (UniProt Q4UZF6)",
  "T1 sequence": "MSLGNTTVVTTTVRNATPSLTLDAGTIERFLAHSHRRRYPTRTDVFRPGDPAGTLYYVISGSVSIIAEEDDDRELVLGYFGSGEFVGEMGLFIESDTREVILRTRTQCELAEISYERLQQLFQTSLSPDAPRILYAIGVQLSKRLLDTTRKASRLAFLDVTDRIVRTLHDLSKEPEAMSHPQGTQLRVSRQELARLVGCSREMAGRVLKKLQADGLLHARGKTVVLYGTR",
  "assay": "EMSA",
  "data": [
    {"sequence": "AGCTGAAGGCCGGCCCGGCGGCCAGTGCGAGGGCGGTGGCCAAAGCGAGCGTGCTTGCGGTCCTGAATATGGACATGGTGATCTCCCTAGAGAACCGGGCTCGACACCCGAGCGCGGTAAGGCGGGCATCTTGGTCTGTGCGCGCGTCGCGTGGTG (double strand) [P-36/+120 (text: P-36/+100)]", "values": [
      {"measurement": "binding", "value": "no binding"}
    ]},
    {"sequence": "CATGGTGATCTCCCTAGAGAACCGGGCTCGACACCCGAGCGCGGTAAGGCGGGCATCTTGGTCTGTGCGCGCGTCGCGTGGTGTGATCGTCCCCACAGAAAAC (double strand) [P-56/+47]", "values": [
      {"measurement": "binding", "value": "binds"}
    ]}
  ]
}
